Measured values from publication doi:10.1101/2020.02.05.935528.

Target: Nitrosopumilus maritimus 4-hydroxybutyryl-CoA dehydratase (Nitrosopumilus maritimus)
Assay: crystal structure

With “Nitrosopumilus maritimus 4-hydroxybutyryl-CoA dehydratase (enzyme)” as the substance, how does the stoichiometry N read?
Its stoichiometry N is 4.
